In publication PMC3254805:

Molecular target: endogenous GSK3β (UniProt P49841)
Assay: anti-FoxO3a IP, GSK3β blot
Details: reference: HA-FoxO3a-WT; sites T32,S253,S315

binding against the reference: stronger
Substance: FoxO3a (RLuc- or HA-tagged constructs, WT and TM) (from UniProt O43524) HA-FoxO3a-TM (triple mutant)
